This passage reports Kd results from paper PMC4281115, “pH-Dependent Conformational Changes in the HCV NS3 Protein Modulate Its ATPase and Helicase Activities”.

Data set [1] concerns the target T1, NS3FL (full-length NS3) (Hepatitis C virus genotype 1b …, UniProt Q9WMX2 1027-1657). The data set can be described thus: fluorescence anisotropy; pH 6.4, 2 mM MgCl2; 25 mM MOPS-NaOH pH 6.4 or 7.2, 2 mM MgCl2, 25 C; 25 nM 5-FAM-dT20 with 0-10 uM NS3hel or 0-5 uM NS3FL, 10 min (anisotropy); 1 uM protein with 0-1 uM ssDNA (Trp). The note with it: protein: recombinant; tags: C-terminal 6xHis; label: 5'-carboxyfluorescein (5-FAM); single strand. Background: Fluorescence polarisation rises when a labelled molecule tumbles more slowly, as on binding a larger partner.

Data set [2] has as its target T2, NS3hel (NS3 helicase domain) (Hepatitis C virus genotype 1b …, UniProt Q9WMX2 1193-1657). The data set is described as above. Particulars: protein: recombinant; tags: N-terminal 6xHis-TEV, cleaved; label: 5'-carboxyfluorescein (5-FAM); single strand.
The target in data set [3] is T1, NS3FL (full-length NS3). The data set can be described thus: fluorescence anisotropy; pH 7.2, 2 mM MgCl2; 25 mM MOPS-NaOH pH 6.4 or 7.2, 2 mM MgCl2, 25 C; 25 nM 5-FAM-dT20 with 0-10 uM NS3hel or 0-5 uM NS3FL, 10 min (anisotropy); 1 uM protein with 0-1 uM ssDNA (Trp). The note with it: protein: recombinant; tags: C-terminal 6xHis; label: 5'-carboxyfluorescein (5-FAM); single strand.

Data set [4] addresses T2, NS3hel (NS3 helicase domain). The description is as above. Particulars: protein: recombinant; tags: N-terminal 6xHis-TEV, cleaved; label: 5'-carboxyfluorescein (5-FAM); single strand.

T1 sequence (Q9WMX2 1027-1657): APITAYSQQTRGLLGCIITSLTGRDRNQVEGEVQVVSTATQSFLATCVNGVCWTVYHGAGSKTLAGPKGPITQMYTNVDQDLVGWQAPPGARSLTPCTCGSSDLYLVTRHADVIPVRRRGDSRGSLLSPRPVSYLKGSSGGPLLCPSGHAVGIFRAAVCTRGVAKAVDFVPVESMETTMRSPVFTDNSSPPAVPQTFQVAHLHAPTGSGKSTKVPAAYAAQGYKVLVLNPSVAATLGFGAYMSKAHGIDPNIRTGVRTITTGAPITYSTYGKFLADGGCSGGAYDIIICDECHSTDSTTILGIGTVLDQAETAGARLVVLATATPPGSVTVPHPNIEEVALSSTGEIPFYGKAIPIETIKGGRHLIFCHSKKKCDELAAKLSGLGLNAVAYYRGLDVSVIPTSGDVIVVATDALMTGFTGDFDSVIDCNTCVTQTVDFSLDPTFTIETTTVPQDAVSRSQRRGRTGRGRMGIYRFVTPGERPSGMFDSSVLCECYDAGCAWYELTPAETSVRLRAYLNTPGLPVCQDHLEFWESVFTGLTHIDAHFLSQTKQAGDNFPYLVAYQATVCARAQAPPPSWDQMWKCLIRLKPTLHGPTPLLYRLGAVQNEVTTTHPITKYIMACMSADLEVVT
T2 sequence (Q9WMX2 1193-1657): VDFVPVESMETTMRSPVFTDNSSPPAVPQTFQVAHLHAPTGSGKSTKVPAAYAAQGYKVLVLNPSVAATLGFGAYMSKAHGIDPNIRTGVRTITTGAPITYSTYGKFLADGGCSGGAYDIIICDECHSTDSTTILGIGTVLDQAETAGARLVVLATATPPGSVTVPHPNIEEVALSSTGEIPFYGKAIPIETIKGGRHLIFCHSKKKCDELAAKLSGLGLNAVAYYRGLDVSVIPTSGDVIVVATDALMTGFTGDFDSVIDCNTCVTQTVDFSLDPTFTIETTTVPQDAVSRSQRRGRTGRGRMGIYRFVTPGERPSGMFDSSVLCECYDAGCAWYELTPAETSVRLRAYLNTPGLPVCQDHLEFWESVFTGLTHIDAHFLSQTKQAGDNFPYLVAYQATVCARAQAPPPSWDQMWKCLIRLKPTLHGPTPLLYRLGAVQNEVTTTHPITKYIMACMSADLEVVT

B1: 5-FAM oligo(dT)20 (ssDNA)
DNA: TTTTTTTTTTTTTTTTTTTT
Turning to B1, the Kd with NS3FL (full-length NS3) [1] was ~28 nM; in data set [2], ~42 nM; with NS3FL (full-length NS3) [3] it was ~49 nM; in data set [4], ~254 nM.

The Kd is the free concentration of one partner at which half of the binding sites on the other are occupied at equilibrium, for simple one-to-one binding.
